“Also recorded” adds a separate entry of the source.
B1: wild-type CAF-1 p150: full-length mouse CAF-1 p150 expressed in rabbit reticulocyte lysate (protein)
chain: MLEEPEAATRTAAAVDCKDRPGFPVKRLIQARLPFKRLNLVPKEKVEEDTSPKAAVESKVPDLQLSLGTFESQCHTGSHVGLSTKLVGGQGPIDSFLRATIKPVPSVVIIDLTENCSDIPDSPEGHSELSPDTAGVVTTVEGAAKQQEHSAAELCLLETPSDITCHMEEEPGSPGDPKRTGDCQAGSLQSCPELTPGSRTCPTKELSSWSKAGDLLFIEKVPVVVLEDILATKPSIASLPMMSLDRSVTSESEILESCPEDDSILSHSSTNSSSPTSSPEGPSTPPEHRGGRSSPSTPACRVAKNFVKGSTEKGRSKLHRDREQQREEKEKLREEIRRAKEEARKKKEEEKELKEKERREKREKDEKEKAEKQRLKEEKRKERQEALEAKLEEKRKKEEEKRLREEEKRLREEEKRIKAEKAEITRFFQKPKTPQAPKTLAGSCGKFAPFEIKEHMVLAPRCRAALDQDLCDQLDQLLQQQSVASTFLSDLKSRLPLRSGPTRVCGHDTDIMNRDVVIVESSKVDGVSERKKFGRMKLLQFSENHRPAYWGTWNKKTAIIRPRNPWAQDKDLLDYEVDSDDEWEEEEPGESLSHSEGDEDDDVGEDEDEDDGFFVPHGYLSEDEGVTEECADPENHKVHQKLKAKEWDELLAKGKRFRVLQPVHVGCVWASEAANCTSSDLKLLQQFTACLLDVASPDEPEPGASRREKRDQHILAQLLPLLHGNVNGSKVIIHEFQEQCRRGLLTLPSPTPHLQMPNLEDAVAVPSKARLKRLISENSAYEKRPNFRMCWYVHPEVLKSFGQECLPVPCQWTYITTMPSAPREDSGSASTEGPGQSTPMLLKRKPAATMCITQFMKKRRYDGQVGSGDMDGFQADTEEDEEDDTDCMIIDVPDVGSDVSEAPIPAPTLCK
modifications: [35S]-methionine labelled
B2: R426D mutant: full-length mouse CAF-1 p150 with R426D, expressed in rabbit reticulocyte lysate (protein)
chain: MLEEPEAATRTAAAVDCKDRPGFPVKRLIQARLPFKRLNLVPKEKVEEDTSPKAAVESKVPDLQLSLGTFESQCHTGSHVGLSTKLVGGQGPIDSFLRATIKPVPSVVIIDLTENCSDIPDSPEGHSELSPDTAGVVTTVEGAAKQQEHSAAELCLLETPSDITCHMEEEPGSPGDPKRTGDCQAGSLQSCPELTPGSRTCPTKELSSWSKAGDLLFIEKVPVVVLEDILATKPSIASLPMMSLDRSVTSESEILESCPEDDSILSHSSTNSSSPTSSPEGPSTPPEHRGGRSSPSTPACRVAKNFVKGSTEKGRSKLHRDREQQREEKEKLREEIRRAKEEARKKKEEEKELKEKERREKREKDEKEKAEKQRLKEEKRKERQEALEAKLEEKRKKEEEKRLREEEKRLREEEKRIKAEKAEITDFFQKPKTPQAPKTLAGSCGKFAPFEIKEHMVLAPRCRAALDQDLCDQLDQLLQQQSVASTFLSDLKSRLPLRSGPTRVCGHDTDIMNRDVVIVESSKVDGVSERKKFGRMKLLQFSENHRPAYWGTWNKKTAIIRPRNPWAQDKDLLDYEVDSDDEWEEEEPGESLSHSEGDEDDDVGEDEDEDDGFFVPHGYLSEDEGVTEECADPENHKVHQKLKAKEWDELLAKGKRFRVLQPVHVGCVWASEAANCTSSDLKLLQQFTACLLDVASPDEPEPGASRREKRDQHILAQLLPLLHGNVNGSKVIIHEFQEQCRRGLLTLPSPTPHLQMPNLEDAVAVPSKARLKRLISENSAYEKRPNFRMCWYVHPEVLKSFGQECLPVPCQWTYITTMPSAPREDSGSASTEGPGQSTPMLLKRKPAATMCITQFMKKRRYDGQVGSGDMDGFQADTEEDEEDDTDCMIIDVPDVGSDVSEAPIPAPTLCK
modifications: [35S]-methionine labelled

Tests used:
PCNA = assay: Crystal model of p150 PIP bound to PCNA; type: binding, human; conditions: synthetic 20-amino acid peptide, crystals at pH 5, resolution 46.2–2.4 Å; only RFF residues modelled; model could not be refined further
Description: In order to better understand the molecular basis of CAF-1 binding to PCNA, we determined the crystal model of a complex between a synthetic peptide encompassing the p150 PIP and PCNA. The crystal model was solved using molecular replacement from a previously published PCNA structure (Table 1 and Materials and Methods). PCNA samples were incubated with a 20-amino acid PIP derived from CAF-1 p150. The PIP used for crystallization, […] (PIP residues in italics), spanned the entire PIP region.
A CAF-1 p150 synthetic peptide with the sequence […] was synthesized at the University of Cambridge in-house protein and nucleic acid facility (PNAC). For use in crystallization trials, the synthetic peptide was dissolved in demineralized water to a concentration of 23 mM. Initial crystallization conditions were further refined and optimized with the help of the PACT suite (Qiagen) and Additive Screen (Hampton Research), which contain multiple reagent libraries that enhance the solubility and crystallization of biological macromolecules. […]
The eluate was subsequently purified with a Superdex™ 200 gel filtration column (GE Healthcare) in gel filtration buffer 20 mM Tris pH 7.5, 150 mM NaCl, 1 mM DTT. The fractions corresponding to PCNA homotrimer were pooled, concentrated with an amicon concentrator with 3 kDa MWCO, quantified using absorbance at A280 nm, and stored at - […]

[1] = test system: DNA replication-coupled nucleosome assembly (S100 extract from human HEK-293 cells); assay: Replication-dependent nucleosome assembly assay (SV40 DNA replication, S100 extract); type: biochemical; conditions: increasing amounts of in vitro translated p150 (rCAF-1: positive control), 45 min + 45 min at 37 °C, autoradiography
Text: We next sought to compare the activities of CAF-1 p150, wild-type, and the R426D mutant in a replication-coupled chromatin assembly assay. As a first step to performing this assay, we expressed CAF-1 p150 wild-type and the R426D mutant in a rabbit reticulocyte lysate coupled transcription and translation system and labelled the proteins with [^35S]-methionine. […] In the replication coupled chromatin assembly system, an S100 extract from cultured human HEK-293 cells provides all the cellular DNA replication enzymes and histones but lacks CAF-1 p150 [37]. To this extract, a plasmid containing an SV40 origin of replication and the viral replication protein, SV40 large T antigen, were added to support SV40 DNA replication. Radiolabeled dATP was also added to visualize the replication products by autoradiography.
In contrast, when the recombinant CAF1 protein (p150, p60, p48) or the p150 subunit alone are added, they bind to histones in the S100 extract and promote nucleosome assembly coupled with DNA replication. DNA topoisomerase enzyme I, which is present in the S100 extract (and further supplemented in these assays to ensure sufficient levels), removes the positive supercoiling in the linker DNA that connects nucleosomes, leaving negative supercoiling due to DNA wrapping around histone octamers (evident upon subsequent removal of the histones and electrophoresis).
Replication reactions were assembled as previously reported. […]
The reactions were extracted using phenol, chloroform, and isoamyl alcohol (25:24:1) and the DNA was then precipitated with sodium acetate and ethanol. […] The products of replication were analyzed using a native 1.25% agarose gel in 1X TAE buffer with 1 mM MgCl2, without the addition of ethidium bromide. […] The gel was subsequently imaged and analyzed using a phosphor imager (Typhoon FLA 7000) to visualize the replicated DNA.

Molecule | binding mode to PCNA in crystal model (PCNA) | supercoiling of replicated DNA / nucleosome assembly [1] | supercoiling of replicated DNA / nucleosome assembly ([1]; listed as CAF-1 R426D mutant)
IKAEKAEITRFFQKPKTPQA [CAF-1 p150 PIP] | one CAF-1 p150 PIP bound to each PCNA monomer; also recorded: forms a cation-π interaction with Tyr 250 of PCNA |  | 
B1 |  | the replication products were supercoiled | 
B2 |  | much less supercoiling was observed | deficient in nucleosome assembly

From article PMC9570017, “Unorthodox PCNA Binding by Chromatin Assembly Factor 1” (International Journal of Molecular Sciences, 2022)
